What was measured:
[1] = molecular target: T1, human EGFRvIII-hFc protein (human, UniProt P00533 25-645); test: ELISA, coated EGFRvIII-hFc, antibody 1 nM
T1 construct: extracellular domain; made in HEK293 cells, purified on protein A; also called immunogen A; hFc-tagged EGFRvIII protein; not shown: human IgG Fc fragment (hFc) of the pCpC vector
How it was run: (§1)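 EGFRvIII-hFc coated at 1.0 μg/mL in PBS overnight at 4° C, blocked with PBS/0.01% Tween20/1% BSA for 2 h at room temperature. Purified anti-EGFRvIII antibody bound 2 h at 37° C, then HRP-labeled secondary 2 h at 37° C. TMB developed 30 min, stopped with 1.0N HCl, A450 nm read.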

[2] = molecular target: T1, human EGFRvIII-hFc protein; test: ELISA, coated EGFRvIII-hFc, antibody 10 nM
How it was run: as §1

[3] = molecular target: T1, human EGFRvIII-hFc protein; test: ELISA, coated EGFRvIII-hFc, antibody 0.0001 nM
How it was run: as §1

[4] = molecular target: T2, human EGFRvIII protein on the cell surface (human, UniProt P00533 25-1210); test: FACS on CHOk1-EGFRvIII cells
T2 construct: whole, on cells; the cell line is named under assay; also called hEGFRvIII; U87MG-hEGFRvIII

[5] = molecular target: T2, human EGFRvIII protein on the cell …; test: FACS on U87MG-hEGFRvIII cells
[6] = molecular target: T3, human wild-type EGFR protein on the cell surface (human, UniProt P00533 25-1210); test: FACS on CHOk1-EGFR cells; CHOk1-EGFR cells (recombinant EGFR expression)
T3 construct: whole, on cells; Endogenous on A431, HEB, U87MG cells and normal human primary hepatocytes; transfected on CHOk1-EGFR cells; The cell is named under assay; also called A431; HEB
Method: The cells are washed twice with the HBSS buffer and are counted, and then the cells are diluted with the HBSS buffer to 2×10⁶ cells/ml, added with 1% goat serum blocking solution, with the percentage being the mass percentage, and incubated on ice for 30 minutes, and then centrifugally washed twice with the HBSS buffer. The collected cells are suspended to 2×10⁶ cells/mL with an FACS buffer (HBSS+1% BSA, with the percentage being the mass percentage), added to a 96-well FACS reaction plate at 100 μL/well, then added with 100 μL/well of the purified EGFRvIII antibody (samples to be tested) obtained in example 2, and incubated on ice for 2 hours. The plate is centrifugally washed twice with the FACS buffer, added with 100 μL/well of a fluorescence (Alexa 488) labeled secondary antibody (purchased from Invitrogen), and then incubated on ice for 1 hour. […] The cells are suspended in 100 μL of the FACS buffer, and the results are detected and analyzed by FACS (FACS Calibur, purchased from BD). Data analysis is performed by using the software (CellQuest) to obtain the mean fluorescence intensity (MFI) of the cells. Data is further analyzed by using the software (GraphPad Prism5) to perform data fitting and calculate EC50. […]

[7] = molecular target: T3, human wild-type EGFR protein on the …; test: FACS on A431 cells; A431 cells (large amount of wild-type EGFR on the surface)
Method: The cells are washed twice with the HBSS buffer and are counted, and then the cells are diluted with the HBSS buffer to 2×10⁶ cells/ml, added with 1% goat serum blocking solution, with the percentage being the mass percentage, and incubated on ice for 30 minutes, and then centrifugally washed twice with the HBSS buffer. The collected cells are suspended to 2×10⁶ cells/mL with an FACS buffer (HBSS+1% BSA, with the percentage being the mass percentage), added to a 96-well FACS reaction plate at 100 μL/well, then added with 100 μL/well of the purified EGFRvIII antibody (samples to be tested) obtained in example 2, and incubated on ice for 2 hours. The plate is centrifugally washed twice with the FACS buffer, added with 100 μL/well of a fluorescence (Alexa 488) labeled secondary antibody (purchased from Invitrogen), and then incubated on ice for 1 hour. The plate is centrifugally washed 3 times with the FACS buffer, added with 100 μL/well of a fixing solution [4% (v/v) paraformaldehyde] for suspending the cells, and centrifugally washed twice with the FACS buffer after 10 minutes. The cells are suspended in 100 μL of the FACS buffer, and the results are detected and analyzed by FACS (FACS Calibur, purchased from BD). Data analysis is performed by using the software (CellQuest) to obtain the mean fluorescence intensity (MFI) of the cells. Data is further analyzed by using the software (GraphPad Prism5) to perform data fitting and calculate EC50. […] A431 cells (human epidermal cell cancer cell lines) have a large amount of wild-type EGFR protein expressed on the surface thereof. […] U87MG cells (human glioma cell lines) have a small amount of wild-type EGFR protein expressed on the surface thereof, while HEB cells (human glioma cell lines) have a high level of wild-type EGFR protein expression on the surface thereof.

Binder	OD450 nm [1]	OD450 nm [2]	OD450 nm [3]	EC50 [4]	Maximum mean fluorescence intensity [4]	EC50 [5]	EC50 [6]	EC50 [7]
Murine anti-75G7 (antibody, V domains shown, murine hybridoma antibody; also called 75G7C6) VH: EVQLQQSGPELVKPGASVKIPCKASGYTFTDYNMDWVKQSHGKSLEWIGDINPNNGDTIYNQKFKGKATLTVDKSSSTAYMELRSLTSEDTAVYYCARGDYDGYYPVYYAMDYWGQGTSVTVSS VL: ENVLTQSPAIMSASPGEKVTMTCRASSSVSSSYLHWYQQKSGASPKLWIFSTSNLAAGVPARFSGSGSGTSYSLTVSSVEAEDAATYYCQQYSGYPLTFGAGTKLELK	0.09	0.19	0.07	–	–	–	–	–
Chimeric antibody 75G7 (antibody, human IgG1, V domains shown, also called c75G7C6; chimeric antibody c75G7C6) VH: EVQLQQSGPELVKPGASVKIPCKASGYTFTDYNMDWVKQSHGKSLEWIGDINPNNGDTIYNQKFKGKATLTVDKSSSTAYMELRSLTSEDTAVYYCARGDYDGYYPVYYAMDYWGQGTSVTVSS VL: ENVLTQSPAIMSASPGEKVTMTCRASSSVSSSYLHWYQQKSGASPKLWIFSTSNLAAGVPARFSGSGSGTSYSLTVSSVEAEDAATYYCQQYSGYPLTFGAGTKLELK	–	–	–	10.5 nM	112000 MFI	6.1 nM	14.2 nM	13.4 nM

— patent US20210032351A1 (XDCEXPLORER SHANGHAI, published 2021)
